± gives the uncertainty stated by the source.
Assay: protein stability index of a GFP-peptide fusion (yeast GPS) (PSI 1-4); higher = more stable; sorted into four equal gates, so the index is relative within each strain
Procedure, shortened: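 Peptides tiling yeast proteins in 17-residue segments were fused downstream of GFP, with Cherry expressed from the same plasmid. As a pooled library in yeast, mid-log cultures grown in leucine-free medium were sorted into four equal gates by GFP/Cherry fluorescence ratio. Gate plasmids were PCR-amplified and Illumina-sequenced, and barcodes linked reads to strains. Each peptide received a protein stability index equal to the sum of each gate's read frequency times its gate number.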

Sequence | protein stability index (doa10∆) | protein stability index (pdr5∆) | protein stability index (san1∆) | protein stability index (ubr1∆)
KKNNLEFGTYGKYVIAG [RPN14] | 2.51 ± 0.088 | 2.09 ± 0.069 | 1.79 ± 0.14 | 2.1 ± 0.065
FIKLQKIDIIELQKSLS [FAS1] | 2.15 ± 0.045 | 2 ± 0.044 | 2.04 ± 0.059 | 2.28 ± 0.047
VPNSSDQAELPNNASSH [SNF2] | 2.26 ± 0.13 | 2.85 ± 0.21 | – | 2.74 ± 0.16
QELKLTCVAKKGIAKEH [RPB3] | 3.09 ± 0.23 | 3.18 ± 0.13 | 2.92 ± 0.1 | 2.96 ± 0.095
KFTTVLAKILARSIDVE [ECM29] | – | 1.53 ± 0.2 | 2.94 ± 0.14 | 3.01 ± 0.22
VRPFGVSTLIAGFDPRD [PRE6] | 1.5 ± 0.15 | 1.7 ± 0.13 | 1.75 ± 0.17 | 1.41 ± 0.084
TKTRKHRGHVSAGKGRI [RPL28] | 1.91 ± 0.06 | 2.21 ± 0.062 | 2.09 ± 0.12 | 2.4 ± 0.062
LGVKSRLLEKSELPDIY [SNF2] | 3.12 ± 0.13 | 3.42 ± 0.15 | 3.05 ± 0.082 | 3.11 ± 0.19
FQFKLLQSNSKLASTLE [SMC4] | 2.29 ± 0.056 | 2.37 ± 0.042 | 2.42 ± 0.055 | 2.58 ± 0.038
HYLVLLVAKFLYPIFLL [YJR042W/NUP85] | 1.4 ± 0.035 | 1.22 ± 0.032 | 1.11 ± 0.071 | 1.13 ± 0.026
LQIAQLTLKHRQNKVQH [RPN10] | 2.26 ± 0.088 | 2.23 ± 0.071 | 1.74 ± 0.1 | 1.88 ± 0.065
RFTPGSFTNYITRSFKE [RPS0A] | 3.03 ± 0.16 | 3.36 ± 0.1 | 2.93 ± 0.1 | 3.07 ± 0.11
LKENAGSLTFLDNKGSG [YIL149C/MLP2] | 3.31 ± 0.17 | 3.37 ± 0.1 | 3.55 ± 0.12 | 3.48 ± 0.066
KKVMPAIVVRQAKSWRR [RPL23A] | 2.84 ± 0.14 | 2.85 ± 0.088 | 2.64 ± 0.16 | 2.99 ± 0.063
RYFWLDHNGVPFPQYPA [ITC1] | 2.22 ± 0.096 | 2.81 ± 0.086 | 3.08 ± 0.1 | 2.47 ± 0.06
KSLPLLITVMEKSPDPT [YCS4] | 1.91 ± 0.045 | 1.87 ± 0.043 | 1.92 ± 0.062 | 1.97 ± 0.034
NNDFKLSIDKVLKKPNR [RET1] | 2.06 ± 0.092 | 2.84 ± 0.12 | 3.01 ± 0.1 | 2.94 ± 0.13
KENYPWELYTDFNEIVQ [POP3] | 2.42 ± 0.25 | – | 2.4 ± 0.16 | –
SLDRVAWRTLVGVSHTN [CYT1] | 1.3 ± 0.053 | 1.31 ± 0.048 | 1.34 ± 0.11 | 1.25 ± 0.043
LSLGEAFKKIDAITVKD [COR1] | 3.39 ± 0.29 | – | – | 3.71 ± 0.19
KRPYESSRLDAELKLAG [RPS9A] | 3.24 ± 0.088 | 3.05 ± 0.065 | 2.81 ± 0.072 | 2.96 ± 0.14
AKKLPNGNWEVGVHIAD [DIS3] | 1.61 ± 0.16 | 2.25 ± 0.15 | 2.51 ± 0.19 | 3.25 ± 0.16
TDEHLIFNSGKMIILDK [ISW2] | 3 ± 0.24 | 2.74 ± 0.074 | 2.35 ± 0.1 | 2.59 ± 0.058
MTTQQEEQRSDTKNSKS [ISW2] | 3.26 ± 0.17 | 3.08 ± 0.18 | 2.73 ± 0.26 | 3.2 ± 0.19
DQTNHIESDSILNLLNI [ECM29] | 3.02 ± 0.064 | 3.04 ± 0.072 | 2.99 ± 0.077 | 3.03 ± 0.059
QNPMRDLKIEKLVLNIS [RPL11A] | 3.04 ± 0.076 | 3.09 ± 0.08 | 3.33 ± 0.082 | 2.84 ± 0.11
